Results: US20260224727A1, “COMPOUNDS AND METHODS FOR TREATING, AMELIORATING, OR […]” (Yale University, priority 2023, published 2026)
Bridge positions count the residues as written; N and C are the ends. Square brackets hold non-standard residues; d marks the D form. Ends that are not written are not given here. Cit = NC(=O)NCCC[C@H](N)C(=O)O

T1: recombinant biotin-ASGPR1 (Homo sapiens, UniProt P07306)
T1 construct: purchased Viva Biotech
T1 sequence (P07306 1-291): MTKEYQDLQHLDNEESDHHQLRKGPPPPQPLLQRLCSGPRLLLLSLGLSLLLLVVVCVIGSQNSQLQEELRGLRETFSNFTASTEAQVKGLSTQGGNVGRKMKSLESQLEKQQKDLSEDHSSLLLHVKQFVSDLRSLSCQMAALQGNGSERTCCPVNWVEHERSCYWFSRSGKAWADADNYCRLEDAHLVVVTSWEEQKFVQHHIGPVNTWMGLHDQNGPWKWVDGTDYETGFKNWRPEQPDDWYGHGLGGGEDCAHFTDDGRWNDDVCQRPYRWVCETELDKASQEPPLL


Legend:
[1] = Plasma stability in mouse plasma (LCMS, percent remaining); format: in vitro ADME; settings: 37° C., 2 hours incubation, read-out: T1/2 plasma stability
Description: (§1) With reference to FIGS. 6A and 6B, plasma stability […] of CCP1-GN4 was measured at WuXi Biologics. The compound was incubated in human, rat, or mouse plasma at 37° C. for 2 hours. Aliquots were taken at various time points and the percent remaining of CCP1-GN4 was quantified by LCMS. For plasma protein binding (PPB), the compound (CCP1-GN4) was incubated with human, rat, or mouse plasma protein and the degree of plasma protein binding was determined by ultracentrifugation and LCMS.

[2] = biological target: mouse anti-citrullinated epitope recombinant antibody clone 12G1 (anti-CCP1); assay: SPR binding of CCP1-GN4 to immobilized anti-CCP1 antibody (Biacore S200, steady state affinity); settings: antibody clone 12G1 immobilized on CM5 chip, 25° C., steady state affinity model, read-out: KD (anti-CCP)
Description: With reference to FIG. 5A, binding of CCP1-GN4 was assessed using a surface plasmon resonance (SPR) on a Biacore S200 instrument. Prior to binding studies, 20 μg/mL mouse anti-citrullinated epitope recombinant antibody clone 12G1 (anti-CCP1) (Creative BioLabs) was immobilized to a Series S Sensor Chip CM5 using amine coupling to a target of 1.000 response units (RU) in 10 mM sodium acetate buffer pH 5.5. In parallel, normal human IgG isotype control (R&D Systems) was immobilized as a reference subtraction control using identical conditions. Sensor chips and reagents necessary for amine coupling were purchased from Cytiva.
CCP1-GN4 was serially diluted in 100% DMSO and transferred to a 96-well microplate. 1×HBS-P buffer (Cytiva) was added to dilute sample to final test concentrations (1000 nM, 250 nM, 62.5 nM, 15.6 nM, 3.9 nM, 1 nM) in 1% DMSO. A solution of 1×HBS-P (Cytiva) containing 1% DMSO was prepared as running buffer immediately prior to binding experiments.
Samples were injected over the sensor chip with a contact time of 300 seconds, dissociation time of 600 seconds, and a flow rate of 30 μL/minute at 25° C. Between injections, a solution containing 50% DMSO in 1×HBS-P buffer was used to wash any remaining bound analyte from the sensor chip surface. […]

[3] = biological target: T1, recombinant biotin-ASGPR1; assay: SPR binding to ASGPR1 (Biacore 8K)
Description: With reference to FIG. 5B, binding to ASGPR1 was characterized by surface plasmon resonance (SPR) on a Biacore 8K instrument. Preceding binding measurement, recombinant biotin-ASGPR1 (Viva Biotech) was diluted to a concentration of 2 μg/mL in a buffer containing 20 mM Tris pH 8.0, 200 mM NaCl, 1 mM TCEP, 2 mM CaCl2), and 0.01% Tween-20. A Sensor Chip SA (Cytiva) was conditioned with three injections of 1 M NaCl in 50 mM NaOH prior to capturing […] ASGPR on the sensor chip surface. Capture was performed at a flow rate of 5 μL/min with a target level of 1000 RU. CCP1-GN4 was serially diluted across 10 points to final test concentrations (25 nM, 8.3 nM, 2.8 nM, 0.93 nM, 0.3 nM, 0.1 nM, 0.03 nM, 0.01 nM, 0.004 nM, 0.0013 nM) in buffer composed of 20 mM Tris pH 8.0, 200 mM NaCl, 1 mM TCEP, 2 mM CaCl2), 0.01% Tween-20, and a final solvent composition of 3% DMSO.
Samples were injected over the sensor chip surface with a contact time of 180 seconds, dissociation time of 600 seconds, flow rate of 40 μL/min and temperature of 25° C. Data files were fit to multi-cycle kinetics and steady state models using Biacore Insight Evaluation software to determine kinetic and affinity binding parameters.

[4] = Plasma stability in human plasma (LCMS, percent remaining); format: in vitro ADME; settings: 37° C., 2 hours incubation, read-out: T1/2 plasma stability
Description: as §1

[5] = Plasma stability in rat plasma (LCMS, percent remaining); format: in vitro ADME; settings: 37° C., 2 hours incubation, read-out: T1/2 plasma stability
Description: as §1

[6] = biological target: mouse anti-citrullinated epitope recombinant antibody clone 12G1 (anti-CCP1) (Creative BioLabs)
[7] = biological target: recombinant biotin-ASGPR1 (Viva Biotech); assay: SPR (Biacore 8K), biotin-ASGPR1 captured on SA chip, CCP1-GN4 as analyte, multi-cycle kinetics and steady state models
[8] = biological target: recombinant biotin-ASGPR1 (Viva Biotech); assay: SPR (Biacore 8K), biotin-ASGPR1 captured on Sensor Chip SA, CCP1-GN4 as analyte, multi-cycle kinetics, 1:1 binding model, 25 C
[9] = biological target: mouse anti-citrullinated epitope recombinant antibody clone 12G1 (anti-CCP1) (Creative BioLabs); assay: SPR (Biacore S200), antibody 12G1 amine-coupled on CM5, CCP1-GN4 as analyte, steady state affinity model

EC50 (read off the curve); Anti-CCP1 MFI of 12G1 with goat anti-mouse AF488 in HEK-293-ASGPR cells [6]	Kd [7]	koff [8]	kon [8]	Kd [9]	Molecule	half-life [1]	Kd [2]	Kd [3]	half-life [4]	half-life [5]
–	–	–	–	–	CC(=O)N[C@H]1[C@H](OCCOCCOCCNC(=O)CCOCC(COCCC(=O)NCCOCCOCCO[C@@H]2O[C@H](CO)[C@H](O)[C@H](O)[C@H]2NC(C)=O)(COCCC(=O)NCCOCCOCCO[C@@H]2O[C@H](CO)[C@H](O)[C@H](O)[C@H]2NC(C)=O)NC(=O)CNC(=O)CCOCCOCCOCCOCc2cn(CC[C@H](N)C(=O)N[C@@H](Cc3c[nH]cn3)C(=O)N[C@@H](CCC(N)=O)C(=O)N[C@H]3CSSC[C@@H](C(=O)NCC(=O)N[C@@H](CCCNC(=N)N)C(=O)N[C@@H](CO)C(=O)NCC(=O)N[C@@H](CO)C(=O)O)NC(=O)[C@H](CCCNC(=N)N)NC(=O)CNC(=O)[C@H](CCCNC(=N)N)NC(=O)[C@H](CO)NC(=O)[C@H](CCCNC(=N)N)NC(=O)CNC(=O)[C@H](CCCNC(N)=O)NC(=O)[C@H]([C@@H](C)O)NC(=O)[C@H](CO)NC(=O)[C@H](CCC(=O)O)NC(=O)[C@H](CCC(N)=O)NC(=O)[C@H](Cc4c[nH]cn4)NC3=O)nn2)O[C@H](CO)[C@H](O)[C@@H]1O [CCP1-GN4]	> 290 min	75 nM	1.92 nM	> 290 min	> 290 min
50 nM	1.92 nM	0.029 s⁻¹	1.51e+07 M⁻¹ s⁻¹	75 nM	HQCHQEST[Cit]GRSRGRCGRSGS-OH (disulfide 3-16; not fully specified (N-terminus); also: Dab(N3) side-chain azide joined by CuAAC triazole to Target A001A-PEG4-Alkyne (tri-GalNAc)) [CCP1-GN4]	–	–	–	–	–
